Measured values as given in patent US20230250154A1.

Molecular target: Protease Mixtures
Experiment: cell-based or functional assay

B1: Variant A2M, bait region SEQ ID NO 124, P01023 24-1474 (protein)
chain: SVSGKPQYMVLVPSLLHTETTEKGCVLLSYLNETVTVSASLESVRGNRSLFTDLEAENDVLHCVAFAVPKSSSNEEVMFLTVQVKGPTQEFKKRTTVMVKNEDSLVFVQTDKSIYKPGQTVKFRVVSMDENFHPLNELIPLVYIQDPKGNRIAQWQSFQLEGGLKQFSFPLSSEPFQGSYKVVVQKKSGGRTEHPFTVEEFVLPKFEVQVTVPKIITILEEEMNVSVCGLYTYGKPVPGHVTVSICRKYSDASDCHGEDSQAFCEKFSGQLNSHGCFYQQVKTKVFQLKRKEYEMKLHTEAQIQEEGTVVELTGRQSSEITRTITKLSFVKVDSHFRQGIPFFGQVRLVDGKGVPIPNKVIFIRGNEANYYSNATTDEHGLVQFSINTTNVMGTSLTVRVNYKDRSPCYGYQWVSEEHEEAHHTAYLVFSPSKSFVHLEPMSHELPCGHTQTVQAHYILNGGTLLGLKKLSFYYLIMAKGGIVRTGTHGLLVKQEDMKGHFSISIPVKSDIAPVARLLIYAVLPTGDVIGDSAKYDVENCLANKVDLSFSPSQSLPASHAHLRVTAAPQSVCALRAVDQSVLLMKPDAELSASSVYNLLPEKDLTGFPGPLNDQDDEDCINRHNVYINGITYTPVSSTNEKDMYSFLEDMGLKAFTNSKIRKPKMCPQLEQYEMHGPKEEEGLGSSELEGRGSEAIPMSIPTIPENFFGVVEEPHTKLRKYFPETWIWDLVVVNSAGVAEVGVTVPDTITEWKAGAFCLSEDAGLGISSTASLRAFQPFFVELTMPYSVIRGEAFTLKATVLNYLPKCIRVSVQLEASPAFLAVPVEKEQAPHCICANGRQTVSWAVTPKSLGNVNFTVSAEALESQELCGTEVPSVPEHGRKDTVIKPLLVEPEGLEKETTFNSLLCPSGGEVSEELSLKLPPNVVEESARASVSVLGDILGSAMQNTQNLLQMPYGCGEQNMVLFAPNIYVLDYLNETQQLTPEIKSKAIGYLNTGYQRQLNYKHYDGSYSTFGERYGRNQGNTWLTAFVLKTFAQARAYIFIDEAHITQALIWLSQRQKDNGCFRSSGSLLNNAIKGGVEDEVTLSAYITIALLEIPLTVTHPVVRNALFCLESAWKTAQEGDHGSHVYTKALLAYAFALAGNQDKRKEVLKSLNEEAVKKDNSVHWERPQKPKAPVGHFYEPQAPSAEVEMTSYVLLAYLTAQPAPTSEDLTSATNIVKWITKQQNAQGGFSSTQDTVVALHALSKYGAATFTRTGKAAQVTIQSSGTFSSKFQVDNNNRLLLQQVSLPELPGEYSMKVTGEGCVYLQTSLKYNILPEKEEFPFALGVQTLPQTCDEPKAHTSFQISLSVSYTGSRSASNMAIVDVKMVSGFIPLKPTVKMLERSNHVSRTEVSSNHVLIYLDKVSNQTLSLFFTVLQDVPVRDLKPAIVKVYDYYETDEFAIAEYNAPCSKDLGNADYKDDDDKGASHHHHHH
Protease Inhibition (% of WT); Protease Mixtures, IGD Substrate: 237 % of WT
